The values below come from patent US20150353950A1, “TRANSGENIC PLANTS” (Durham University, priority 2012, published 2015).

One assay concerns GFP:RGA. In words: Immunoprecipitation of GFP:RGA from pRGA::GFP:RGA seedlings sprayed with GA3. It is filed as in vivo, Arabidopsis. The settings on record: seedlings sprayed with GA3 (10 μM), harvested at different time points. As to the method:
FIGS. 7A-D. RGA and GAI are SUMOylated in vivo. a, Immunoprecipitation of GFP proteins from 35S::GFP or 35S::GFP:NPR1 (NON EXPRESSER OF PR GENES) young seedlings sprayed with 1 mM Salicylic acid (+SA) or control (−SA). Numbers indicate molecular mass (kDa), arrowhead, the GFP:NPR1 or GFP proteins. Ponceau staining of the Rubisco large subunit serves as a loading control. b, in vitro deSUMOylation of plant-derived GFP:RGA by recombinant SUMO protease subunits of SENP1 and SENP2. c, immunoprecipitation of equal amount of total proteins derived from pRGA::GFP:RGA seedlings or a transgenic line (Col-0) expressing GAI:GFP (35S::GAI:GFP). 9 days old seedlings were grown in petri dishes in the absence (−) or presence (+) of PAC (0.1 μM). […]
Total proteins were extracted by homogenizing fresh Arabidopsis seedlings in the presence of ice cold extraction buffer—150 mM NaCl, 1% Igepal CA-630, 0.5% sodium deoxycholate, 0.1% SDS, 1 mM EDTA, 50 mM Tris HCl, pH 8.0 and freshly added protease inhibitor cocktail (Roche) and 10 mM N-ethylmaleimide (NEM). The homogenates were clarified by spinning 10 min at 4° C. at 13000×g and the supernatant quantified with the Bradford assay. […] Total proteins were quantified with the Bradford reagent and an equal amount of proteins was precipitated with five volumes of cold acetone. […]

Another assay concerns the target T1, SUMOylated GFP:RGA (Arabidopsis thaliana, UniProt Q9SLH3).
T1 construct: expressed in transfected cells; host or cells: pRGA::GFP:RGA transgenic Arabidopsis plants (Ler background)
Put plainly: On-column deSUMOylation assay of plant-derived GFP:RGA. It is filed as biochemical. The following applies: 5-10 μg recombinant protease, typically 1-2 hours at room temperature. From the text: FIGS. 2A-G. SUMOylation is a novel DELLA modification affecting DELLA accumulation. a, Immunoprecipitation of GFP:RGA proteins. […] His:RGAK65R is not SUMOylated. […] In bold characters, the conserved lysine residues, shaded area, the non-canonical SUMOylation motif. Alignment discloses SEQ ID NOS 41, 76-77, 42, and 78-82, respectively, in order of appearance. e, SUMOylated GFP:RGA accumulation upon NaCl treatment. f, SUMOylated GFP:RGA accumulation in wild-type (OTS1 OTS2) or mutants (ots1 ots2) plants. g, accumulation of GFP:RGA at different concentrations of NaCl. Wild-type extracts (Col-0) were used as a negative control.
GFP:RGA proteins were affinity captured from total proteins extracts of pRGA::GFP:RGA transgenic plants with the μMACS GFP Isolation Kit. Magnetic beads were eluted from the columns with 50 μl of 20 mM Tris HCl, pH 7.5 and split into different tubes. Purified GFP:RGA proteins were incubated with 5-10 μg of recombinant OTS1 or OTS1C526S, or 300 ng of GST tagged human SENP1 or SENP (42) (catalytic domain) (Enzo life sciences). After incubation (typically 1-2 hours at room temperature), the beads were applied to the column, washed and bound proteins eluted with SDSPAGE loading buffer.

In assay [1] the target is T2, SUMOylated GFP:RGA (plant-derived) (Arabidopsis, UniProt P55852 1-93, SUMO1 conjugated; lysine 65 of RGA is the critical amino acid for SUMO attachment).
T2 construct: the preparation is a mixture of SUMOylated and non-SUMOylated forms; also called SUMOylated RGA; SUMOylated DELLA; not shown: GFP fused N-terminally to RGA in the pRGA::GFP:RGA line
In words: GST pull down of plant-derived GFP:RGA with recombinant GST:GID1a, with or without 10 µM GA3. As to the method: GA3 was added at a final concentration of 10 μM. Proteins were pulled-down using the μMACS GST Isolation Kit, according to the manufacturers' instruction (Miltenyi biotech). […] The eluate was dialyzed against 50 mM Tris HCl, pH 7.5, 50 mM NaCl, 1 mM DTT. Plant purified GFP:RGA proteins were split into different tubes and incubated with recombinant GST:GID1a (0.1 μg) or GST proteins in 1× reaction buffer (with freshly added protease inhibitor cocktail) in the presence or absence of 10 μM GA3. GST-bound proteins were pulled-down using the μMACS GST Isolation Kit, washed four times with 1× reaction buffer and eluted according to the manufacturers' instruction.

Assay [2] deals with T3, His:proAtSUMO1 (Arabidopsis, UniProt P55852 1-100).
T3 construct: Probe of the far-western assay on spotted SIM peptides (10 ug/ml); also called recombinant His:proAtSUMO1; not shown: His tag
In words: far-western on spotted peptides. As for the experimental part:
(§1) Peptides corresponding to the putative SIMs in GID1 were purchased from Cambridge Research Biochemicals. 1 μg of each peptide was spotted on a PVDF membrane. Membranes were washed in 100% Ethanol, equilibrated in TBST (25 mM Tris HCl, pH 8.0, 150 mM NaCl, 0.05% Tween 20) and blocked in TBST-Milk 5%. Peptides were probed overnight at 4° C. with recombinant His:proAtSUMO1 (10 μg/ml), washed and subsequently probed with SUMO1 antibodies for standard chemoluminescence-based detection.

Assay [3] addresses T3, His:proAtSUMO1. Put plainly: peptide array probed with SUMO1 (FIG. 10a).
For assay [4], the target named is T3, His:proAtSUMO1. In words: far-western on spotted peptides SIM A and SIM B. As to the method:
as §1

T3 sequence (P55852 whole entry): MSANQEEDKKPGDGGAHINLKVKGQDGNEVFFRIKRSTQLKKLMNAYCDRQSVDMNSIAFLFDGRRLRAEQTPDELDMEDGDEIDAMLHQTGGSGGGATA
T2 sequence (chain, as listed by the source limits assumed, chain 1 of 2): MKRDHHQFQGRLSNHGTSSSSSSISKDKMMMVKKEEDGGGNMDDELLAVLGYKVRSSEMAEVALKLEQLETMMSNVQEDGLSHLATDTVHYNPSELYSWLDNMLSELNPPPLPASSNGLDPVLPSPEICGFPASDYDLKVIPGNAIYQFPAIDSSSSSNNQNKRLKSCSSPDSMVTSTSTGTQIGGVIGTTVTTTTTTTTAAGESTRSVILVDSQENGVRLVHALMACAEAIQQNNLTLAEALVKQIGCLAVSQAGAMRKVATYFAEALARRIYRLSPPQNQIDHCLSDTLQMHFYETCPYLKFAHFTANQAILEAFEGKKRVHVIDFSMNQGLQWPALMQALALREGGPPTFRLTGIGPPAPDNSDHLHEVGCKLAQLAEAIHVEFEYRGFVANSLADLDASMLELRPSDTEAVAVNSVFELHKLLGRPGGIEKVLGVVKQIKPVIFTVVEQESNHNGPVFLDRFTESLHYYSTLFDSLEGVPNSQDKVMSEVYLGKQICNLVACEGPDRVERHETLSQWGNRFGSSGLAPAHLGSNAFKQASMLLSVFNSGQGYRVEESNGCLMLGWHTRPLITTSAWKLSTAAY
T2 sequence (P55852 1-93 limits assumed, chain 2 of 2): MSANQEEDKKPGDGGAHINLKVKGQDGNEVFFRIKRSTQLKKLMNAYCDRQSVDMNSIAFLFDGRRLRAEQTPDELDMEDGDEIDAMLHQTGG
T1 sequence (Q9SLH3 whole entry): as the sequence (chain, as listed by the source limits assumed, chain 1 of 2) above
T1 sequence (P55852 1-93 partner limits assumed): as the sequence (P55852 1-93 limits assumed, chain 2 of 2) above

With `C=C1C[C@]23C[C@@]1(O)CC[C@H]2[C@@]12C=C[C@H](O)[C@@](C)(C(=O)O1)[C@H]2[C@@H]3C(=O)O` [GA, gibberellic acid], the “abundance of SUMOylated and non-SUMOylated RGA after GA treatment” value in the assay on GFP:RGA is “induced a rapid disappearance of both SUMOylated and non-SUMOylated RGA forms”.

B1: OTS1: purified recombinant OTS1 SUMO protease (protein)
chain: MTKRKKEVIDVDCSEKKDFVIDWSSAMDKEDEVPELEIVNTTKPTPPPPPTFFSDDQTDSPKLLTDRDLDEQLERKKAILTLGPGLPDKGEKIRLKIADLEEEKQRRVLEGSKMEVDRSSKVVSSTSSGSDVLPQGNAVSKDTSRGNADSKDTSRQGNADSKEVSRSTFSAVFSKPKTDSQSKKAFGKELEDLGCERRKHKAGRKPVTRLSNGWRLLPDVGKAEHSAKQFDSGLKESKGNKKSKEPYGKKRPMESSTYSLIDDDDDDDDDDDNDTSGHETPREWSWEKSPSQSSRRRKKSEDTVINVDEEEAQPSTVAEQAAELPEGLQEDICYPTRDDPHFVQVCLKDLECLAPREYLTSPVMNFYMRFLQQQISSSNQISADCHFFNTYFYKKLSDAVTYKGNDKDAFFVRFRRWWKGIDLFRKAYIFIPIHEDLHWSLVIVCIPDKKDESGLTILHLDSLGLHSRKSIVENVKRFLKDEWNYLNQDDYSLDLPISEKVWKNLPRRISEAVVQVPQQKNDFDCGPFVLFFIKRFIEEAPQRLKRKDLGMFDKKWFRPDEASALRIKIRNTLIELFRVSDQTE
modifications: left off: small tags and cut ends
notes: purified recombinant OTS1 SUMO protease
As for B1, the “deSUMOylation of SUMOylated GFP:RGA” value with SUMOylated GFP:RGA was “dramatic reduction of the higher molecular weight, anti-SUMO1 cross-reacting bands”.

B2: GST:GID1a (receptor)
chain: MAASDEVNLIESRTVVPLNTWVLISNFKVAYNILRRPDGTFNRHLAEYLDRKVTANANPVDGVFSFDVLIDRRINLLSRVYRPAYADQEQPPSILDLEKPVDGDIVPVILFFHGGSFAHSSANSAIYDTLCRRLVGLCKCVVVSVNYRRAPENPYPCAYDDGWIALNWVNSRSWLKSKKDSKVHIFLAGDSSGGNIAHNVALRAGESGIDVLGNILLNPMFGGNERTESEKSLDGKYFVTVRDRDWYWKAFLPEGEDREHPACNPFSPRGKSLEGVSFPKSLVVVAGLDLIRDWQLAYAEGLKKAGQEVKLMHLEKATVGFYLLPNNNHFHNVMDEISAFVNAEC
notes: GID1a ORF (pLCG66) recombined into pDEST15; also called recombinant GST-tagged GID1a; GST-tagged GID1a; not shown: glutathione S-transferase (GST) tag of the GATEWAY destination vector pDEST15
Take B2: the binding result in assay [1] is on record as “binds”.
Regarding VVPLNTWVLISN (Synthetic peptide, 1 ug spotted on PVDF) [SIM B peptide of GID1a], the binding result with His:proAtSUMO1 [2] is “binds”.
VVPLNTWVLISNF (also called AtGID1a SIM) [SIM “B” peptide of AtGID1a (peptide array of FIG. 10)]: in the assay with His:proAtSUMO1 [3], the binding result is “binds”.

B3: SIM A peptide of GID1a (peptide)
peptide: LIESRTVVPLNTW
notes: Synthetic peptide (Cambridge Research Biochemicals), 1 ug spotted on PVDF
Consider B3, for which the binding result with His:proAtSUMO1 [4] is listed as “no binding”.
